Assay results published in publication PMC7935935, “Conservation of the glycogen metabolism pathway underlines a pivotal function of storage polysaccharides in Chlamydiae” (Communications Biology, 2021).

How the values were obtained:
GlgE-WC = target: T1, GlgE-WC (Waddlia chondrophila, UniProt D6YT22); experiment: maltosyl transfer, FACE capillary electrophoresis and Pi release; format: biochemical; conditions: 30 °C
T1 sequence (D6YT22 1-649): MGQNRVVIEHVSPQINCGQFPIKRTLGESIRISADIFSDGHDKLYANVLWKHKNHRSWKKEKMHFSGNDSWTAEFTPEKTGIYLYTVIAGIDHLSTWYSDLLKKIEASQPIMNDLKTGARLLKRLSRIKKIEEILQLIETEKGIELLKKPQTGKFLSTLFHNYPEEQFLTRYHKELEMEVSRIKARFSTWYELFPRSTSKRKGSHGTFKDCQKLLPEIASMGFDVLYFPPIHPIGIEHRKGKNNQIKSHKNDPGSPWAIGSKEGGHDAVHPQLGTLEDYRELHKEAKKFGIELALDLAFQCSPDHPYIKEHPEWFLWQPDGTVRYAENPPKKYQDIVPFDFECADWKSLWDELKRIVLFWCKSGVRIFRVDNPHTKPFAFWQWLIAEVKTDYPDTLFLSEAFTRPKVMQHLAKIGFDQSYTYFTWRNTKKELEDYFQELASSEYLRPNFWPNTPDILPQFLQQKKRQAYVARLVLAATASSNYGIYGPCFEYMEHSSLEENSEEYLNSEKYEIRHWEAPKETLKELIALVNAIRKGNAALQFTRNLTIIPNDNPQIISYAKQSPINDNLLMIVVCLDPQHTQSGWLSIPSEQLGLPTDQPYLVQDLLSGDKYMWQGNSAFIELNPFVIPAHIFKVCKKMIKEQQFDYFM

[1] = test system: OC[C@H]1O[C@H](O[C@H]2O[C@H](CO)[C@@H](O)[C@H](O)[C@H]2O)[C@H](O)[C@@H](O)[C@@H]1O; experiment: purified protein; conditions: TreS domain, 1 mM MnCl2, no ATP, 125 mM imidazole pH 8, 150 mM NaCl, 30 °C
GlgA–GlgB-WC = target: T2, GlgA–GlgB-WC (Waddlia chondrophila, UniProt D6YUJ8); experiment: […]-glucosyl incorporation into glycogen; zymogram; format: cell-based; conditions: glycogen as acceptor, 30 °C; glycogen synthase domain; labelled compound
T2 construct: gene wcw_0437; natural GlgA-GlgB gene fusion, his-tagged, modified pET15b, E. coli BW25113 delta-glgA; crude extract on zymogram
T2 sequence (D6YUJ8 1-1463): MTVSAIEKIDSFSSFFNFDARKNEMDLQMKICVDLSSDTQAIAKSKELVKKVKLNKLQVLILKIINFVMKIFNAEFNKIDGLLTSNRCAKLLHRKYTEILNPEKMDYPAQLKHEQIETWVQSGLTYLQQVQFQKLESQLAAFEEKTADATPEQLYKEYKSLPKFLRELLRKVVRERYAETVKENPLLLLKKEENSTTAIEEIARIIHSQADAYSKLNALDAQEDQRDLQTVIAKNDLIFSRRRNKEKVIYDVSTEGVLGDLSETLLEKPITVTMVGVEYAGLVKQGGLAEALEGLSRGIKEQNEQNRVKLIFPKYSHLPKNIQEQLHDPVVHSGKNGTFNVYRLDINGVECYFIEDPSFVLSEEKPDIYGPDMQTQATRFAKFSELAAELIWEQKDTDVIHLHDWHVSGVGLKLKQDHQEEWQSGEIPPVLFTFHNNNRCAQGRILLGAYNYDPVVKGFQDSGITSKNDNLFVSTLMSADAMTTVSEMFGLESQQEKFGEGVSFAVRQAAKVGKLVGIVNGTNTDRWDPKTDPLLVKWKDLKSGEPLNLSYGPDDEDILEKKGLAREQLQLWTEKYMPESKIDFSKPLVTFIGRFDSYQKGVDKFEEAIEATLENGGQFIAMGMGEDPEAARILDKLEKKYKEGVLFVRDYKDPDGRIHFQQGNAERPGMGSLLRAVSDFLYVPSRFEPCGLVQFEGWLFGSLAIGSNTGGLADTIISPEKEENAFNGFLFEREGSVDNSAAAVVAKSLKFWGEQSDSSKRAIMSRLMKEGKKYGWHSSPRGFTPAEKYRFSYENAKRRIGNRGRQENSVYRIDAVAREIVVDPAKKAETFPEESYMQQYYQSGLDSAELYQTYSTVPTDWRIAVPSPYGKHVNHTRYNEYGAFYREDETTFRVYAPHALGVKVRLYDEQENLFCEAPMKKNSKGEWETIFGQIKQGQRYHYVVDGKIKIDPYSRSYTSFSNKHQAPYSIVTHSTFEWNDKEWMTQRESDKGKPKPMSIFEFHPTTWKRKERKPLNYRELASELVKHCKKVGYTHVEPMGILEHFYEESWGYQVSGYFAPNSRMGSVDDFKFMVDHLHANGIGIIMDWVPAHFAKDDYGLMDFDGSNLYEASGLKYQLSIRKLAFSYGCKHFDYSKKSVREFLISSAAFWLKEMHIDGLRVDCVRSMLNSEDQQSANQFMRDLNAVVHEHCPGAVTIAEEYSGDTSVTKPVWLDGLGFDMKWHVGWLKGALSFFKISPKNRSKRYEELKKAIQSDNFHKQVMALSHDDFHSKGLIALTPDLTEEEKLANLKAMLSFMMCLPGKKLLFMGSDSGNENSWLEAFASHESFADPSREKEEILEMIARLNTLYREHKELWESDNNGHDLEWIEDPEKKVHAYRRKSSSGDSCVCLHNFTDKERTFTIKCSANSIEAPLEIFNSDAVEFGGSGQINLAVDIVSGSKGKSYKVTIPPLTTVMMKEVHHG

[2] = test system: O=P(O)(O)O[C@H]1O[C@H](CO)[C@@H](O[C@H]2O[C@H](CO)[C@@H](O)[C@H](O)[C@H]2O)[C@H](O)[C@H]1O; experiment: purified protein; conditions: 10 mM maltoheptaose as acceptor per Fig. 5 legend (b24 text assigns the acceptors the other way round), pH 6.8, 30 °C, positive cooperativity
[3] = target: bifunctional TreS-Mak of Estrella lausannensis (trehalose synthase fused to maltokinase) (Estrella lausannensis); experiment: SEC; Superose 6 10/300 GL, PBS (10 mM orthophosphate, 140 mM NaCl, pH 7.4), 4 °C, 0.3 mL/min; apparent molecular weight against standard proteins
[4] = target: the molecule itself; experiment: as above

`O=P(O)(O)O[C@H]1O[C@H](CO)[C@@H](O[C@H]2O[C@H](CO)[C@@H](O)[C@H](O)[C@H]2O)[C@H](O)[C@H]1O` [M1P, maltose-1-phosphate] was tested, and the “maltosyl transfer, FACE capillary electrophoresis and Pi release” value (GlgE-WC; 5 mM malto-oligosaccharide acceptors, 1.6 mM M1P) was “both GlgE activities enable the transfer the maltosyl moiety of M1P onto the glucan primer”.

Molecule “TreS-Mak of Estrella lausannensis (Estrella lausannensis)” has a Km [1] of 42.3 ± 2.7 mM.

For `OC[C@H]1O[C@H](O[C@H]2[C@H](O)[C@@H](O)[C@@H](O[C@H]3[C@H](O)[C@@H](O)[C@@H](O[C@H]4[C@H](O)[C@@H](O)[C@@H](O[C@H]5[C@H](O)[C@@H](O)[C@@H](O[C@H]6[C@H](O)[C@@H](O)[C@@H](O[C@H]7[C@H](O)[C@@H](O)C(O)O[C@@H]7CO)O[C@@H]6CO)O[C@@H]5CO)O[C@@H]4CO)O[C@@H]3CO)O[C@@H]2CO)[C@H](O)[C@@H](O)[C@@H]1O` (stereo partly shown) [DP7, maltoheptaose], the “maltosyl transfer, FACE capillary electrophoresis and Pi release” value (GlgE-WC; acceptor with 1.6 mM M1P, also disproportionated without M1P) was “GlgE activities harbor an α-1,4-glucanotransferase activity exclusively with glucans composed of six or seven”.

With `Nc1ncnc2c1ncn2[C@@H]1O[C@H](COP(=O)(O)OP(=O)(O)O[C@H]2O[C@H](CO)[C@@H](O)[C@H](O)[C@H]2O)[C@@H](O)[C@H]1O` [ADP-glc, ADP-glucose] the “14C-glucosyl incorporation into glycogen; zymogram” value (GlgA–GlgB-WC) was “is functional but highly specific for ADP-glucose”.

GlgE-EL (Estrella lausannensis) was tested, and the K0.5 [2] was 0.33 ± 0.02 mM.

In the case of “bifunctional TreS-Mak of Estrella lausannensis (trehalose synthase fused to maltokinase) (enzyme)”, the stoichiometry N [3] is reported as 2.

B1: GlgE of Estrella lausannensis (maltosyl-1-phosphate transferase; α-maltose-1-phosphate: 1,4-α-D-glucan 4-α-D-maltosyltransferase) (enzyme, UniProt A0A0H5DRC6 1-675, looked up)
chain: MSVSAAEKRQLLTQVKASGSMYTNTLHSIVIQNISPKPEPFGPAKRVLLEQVEVEADIFTDPHTKLEADLIVKAPGLRKTTRIPFHPLVNDRFKAVFVPDTPGTYSFFVEAWVNPAALWQEDLRKKQEARLDLTVDLQIGAALLVEVADLLPPEESVKLLQIAKKLREQKGAEAVAFDPEIARLGRLARPKSRQGVCSQEQEVFVTRKKALFSTWYELFPRSCSGTMRHGTFNDVVAKLPRISRMGFDVLYLPPIHPIGKTKRKGKNNALTALPDDPGSPWAVGSHEGGHDAIQRELGTLADFERLVKEAESLGIEIALDIALQCSPDHPYLKEHPEWFLKRPDGTYQYAENPPKKYEDIIPFHFTEDNKDTLFREILRIFLFWMKRGVRIFRVDNPHTKPFALWEYVIGEVRKVDSGVIFLAEAFTRPKIMHHLARIGFDQSYTYFTWRNTKWELTEYLTELTKTEARNYLRPNFFVNTPDILPESLQWGGRAAFLTRLILAATLSSSYGIYGPAFEQMLSEAVPGKEDYIDSEKYEIKPWDFEKKGTISETIEIVNRIRKENPALQATGNLEFYATDNDYLLAYGKQGPQGESLLIVVNLDHYHTQSGYVTLPLMHLGIQEKEPYLVDDLLSGERYIWEGERNYIQLSPHLVPAHIFRIRPKMLRENNFDYFI
notes: GlgE (maltosyl-1-phosphate transferase) of Estrella lausannensis, glgE gene amplified from genomic DNA; monomer of 75-76 kD; Cloned in pET15b; also called GlgE-EL; source: E. coli Rosetta (DE3)
B1 was tested, and the “stoichiometry N” value [4] was 2.
